{"source": "paper PMC8629194", "target": "wt ACE2_(740)-Fc (M31) (human) (UniProt Q9BYF1)", "sequence (Q9BYF1 18-740)": "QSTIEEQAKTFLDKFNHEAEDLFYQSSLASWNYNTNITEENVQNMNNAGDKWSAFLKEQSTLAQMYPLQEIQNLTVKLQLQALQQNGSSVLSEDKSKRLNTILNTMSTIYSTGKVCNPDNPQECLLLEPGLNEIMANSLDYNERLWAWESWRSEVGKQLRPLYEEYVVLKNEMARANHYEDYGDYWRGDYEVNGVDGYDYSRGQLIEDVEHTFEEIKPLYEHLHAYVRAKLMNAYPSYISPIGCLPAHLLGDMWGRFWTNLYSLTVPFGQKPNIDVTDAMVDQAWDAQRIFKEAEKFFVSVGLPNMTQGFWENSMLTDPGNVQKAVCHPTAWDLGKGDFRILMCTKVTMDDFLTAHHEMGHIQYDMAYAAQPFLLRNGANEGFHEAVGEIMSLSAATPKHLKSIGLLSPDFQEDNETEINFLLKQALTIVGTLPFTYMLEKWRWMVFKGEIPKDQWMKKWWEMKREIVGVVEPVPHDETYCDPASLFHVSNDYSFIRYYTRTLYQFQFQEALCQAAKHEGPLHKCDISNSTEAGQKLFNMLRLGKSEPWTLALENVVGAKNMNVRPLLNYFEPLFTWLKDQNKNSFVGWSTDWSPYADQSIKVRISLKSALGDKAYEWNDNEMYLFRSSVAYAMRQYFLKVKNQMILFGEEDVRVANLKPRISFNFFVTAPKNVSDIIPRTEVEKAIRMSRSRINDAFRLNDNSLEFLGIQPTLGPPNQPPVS", "experiment": "SPR", "data": [{"substance": "SARS-CoV-2 RBDwt (residue 319–541) (from UniProt P0DTC2 319-541) (domain or fragment; other documents disagree on this pair)", "values": [{"measurement": "Kd", "result": 13.9, "unit": "nM"}]}]}
